Reference: patent US20210318312

Sequence of recombinant SIRT5 (Sigma, cat. #SRP0119-100UG) (chain, as listed by the source): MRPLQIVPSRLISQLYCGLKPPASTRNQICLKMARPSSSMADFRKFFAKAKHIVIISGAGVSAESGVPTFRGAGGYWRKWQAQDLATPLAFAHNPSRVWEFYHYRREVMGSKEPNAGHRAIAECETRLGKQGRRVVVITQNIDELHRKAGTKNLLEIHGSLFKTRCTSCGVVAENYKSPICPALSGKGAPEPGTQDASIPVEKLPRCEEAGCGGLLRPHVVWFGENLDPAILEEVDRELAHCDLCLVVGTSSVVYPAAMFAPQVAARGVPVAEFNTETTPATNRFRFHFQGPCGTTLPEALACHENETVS

“recombinant SIRT5 (Sigma, cat. #SRP0119-100UG)” was tested, and the “in vitro deacylation kinetics” value (DLAT K259 Lipoyl peptide) was “no activity was detected for DLAT lipoyl (SEQ ID NO: 8) reactions” and the “in vitro deacylation kinetics” value (DLAT K259 Acetyl peptide) was “low, but detectable activity was measured for DLAT acetyl”.
